Data taken from paper PMC3976318.

How the values were obtained:
[1] = biological target: HA-MC4R (wild-type melanocortin 4 receptor, 3x HA tagged) (human) (UniProt P32245)
[2] = biological target: HA-MC4R G34A (novel rare variant, 101G>C) (human) (UniProt P32245)

For “α-melanocyte stimulating hormone (peptide)”, the α-MSH EC50 for cAMP production (cAMP immunoassay dose-response, HEK cells stably expressing the receptor, three independent immunoassays) [1] was 41.1 nM and the α-MSH EC50 for cAMP production (cAMP immunoassay dose-response, HEK cells stably expressing the receptor, three independent immunoassays) [2] was 43 nM.
